Reference: paper PMC4281115, “pH-Dependent Conformational Changes in the HCV NS3 Protein Modulate Its ATPase and Helicase Activities”

Legend:
[1] = target: T1, NS3hel (NS3 helicase domain) (Hepatitis C virus genotype 1b …, UniProt Q9WMX2 1193-1657); assay: fluorescence anisotropy; pH 6.4, 2 mM MgCl2; 25 mM MOPS-NaOH pH 6.4 or 7.2, 2 mM MgCl2, 25 C; 25 nM 5-FAM-dT20 with 0-10 uM NS3hel or 0-5 uM NS3FL, 10 min (anisotropy); 1 uM protein with 0-1 uM ssDNA (Trp); conditions: protein: recombinant; tags: N-terminal 6xHis-TEV, cleaved; label: 5'-carboxyfluorescein (5-FAM); single strand
T1 sequence (Q9WMX2 1193-1657): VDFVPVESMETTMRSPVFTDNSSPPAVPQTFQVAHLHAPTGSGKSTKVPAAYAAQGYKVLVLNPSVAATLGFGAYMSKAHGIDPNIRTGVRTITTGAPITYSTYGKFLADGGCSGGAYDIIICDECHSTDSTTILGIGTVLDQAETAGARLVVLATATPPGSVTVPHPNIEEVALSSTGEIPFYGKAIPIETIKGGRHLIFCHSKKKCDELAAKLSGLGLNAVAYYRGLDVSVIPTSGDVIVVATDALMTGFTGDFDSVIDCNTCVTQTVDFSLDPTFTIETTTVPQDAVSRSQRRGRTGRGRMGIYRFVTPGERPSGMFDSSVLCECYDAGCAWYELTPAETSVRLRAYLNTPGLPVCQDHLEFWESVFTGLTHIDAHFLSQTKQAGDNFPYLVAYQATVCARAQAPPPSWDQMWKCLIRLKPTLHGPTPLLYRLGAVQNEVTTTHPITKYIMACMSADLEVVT

NS3FL (full-length NS3) [2] = target: T2, NS3FL (full-length NS3) (Hepatitis C virus genotype 1b …, UniProt Q9WMX2 1027-1657); assay: as above; conditions: protein: recombinant; tags: C-terminal 6xHis; label: 5'-carboxyfluorescein (5-FAM); single strand
T2 sequence (Q9WMX2 1027-1657): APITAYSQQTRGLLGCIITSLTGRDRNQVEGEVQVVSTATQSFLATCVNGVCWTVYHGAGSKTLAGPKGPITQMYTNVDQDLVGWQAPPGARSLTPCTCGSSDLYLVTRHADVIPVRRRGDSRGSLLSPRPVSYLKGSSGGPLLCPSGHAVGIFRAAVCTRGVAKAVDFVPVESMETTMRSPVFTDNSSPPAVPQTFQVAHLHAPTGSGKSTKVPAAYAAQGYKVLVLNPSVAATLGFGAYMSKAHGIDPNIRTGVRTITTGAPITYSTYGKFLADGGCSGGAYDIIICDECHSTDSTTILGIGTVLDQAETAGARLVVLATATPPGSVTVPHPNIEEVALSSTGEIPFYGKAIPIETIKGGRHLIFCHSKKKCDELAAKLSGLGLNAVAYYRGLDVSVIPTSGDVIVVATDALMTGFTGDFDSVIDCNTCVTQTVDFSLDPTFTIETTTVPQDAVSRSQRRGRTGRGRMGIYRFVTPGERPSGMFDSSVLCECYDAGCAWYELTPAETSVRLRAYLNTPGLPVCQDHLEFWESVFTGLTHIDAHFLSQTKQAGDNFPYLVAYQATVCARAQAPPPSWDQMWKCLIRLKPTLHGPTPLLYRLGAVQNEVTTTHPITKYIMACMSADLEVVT

[3] = target: T1, NS3hel (NS3 helicase domain); assay: fluorescence anisotropy; pH 7.2, 2 mM MgCl2; 25 mM MOPS-NaOH pH 6.4 or 7.2, 2 mM MgCl2, 25 C; 25 nM 5-FAM-dT20 with 0-10 uM NS3hel or 0-5 uM NS3FL, 10 min (anisotropy); 1 uM protein with 0-1 uM ssDNA (Trp); conditions: protein: recombinant; tags: N-terminal 6xHis-TEV, cleaved; label: 5'-carboxyfluorescein (5-FAM); single strand
NS3FL (full-length NS3) [4] = target: T2, NS3FL (full-length NS3); assay: as above; conditions: protein: recombinant; tags: C-terminal 6xHis; label: 5'-carboxyfluorescein (5-FAM); single strand

B1: 5-FAM oligo(dT)20 (ssDNA)
DNA: TTTTTTTTTTTTTTTTTTTT
Kd [1]: ~42 nM
Kd (NS3FL (full-length NS3) [2]): ~28 nM
Kd [3]: ~254 nM
Kd (NS3FL (full-length NS3) [4]): ~49 nM
